The text below walks through data of patent publication US20120135912A1 (PERSEID THERAPEUTICS, published 2012).

The target in this experiment is T1, human VLA4 (integrin alpha4beta1) on the surface of U937 cells (human, UniProt P13612 34-1032; P05556 21-798).
T1 construct: whole, on cells; Endogenous VLA4 of U937 cells; assay buffer held 1 mM each of CaCl2, MgCl2 and MnCl2; also called cell-surface human VLA4
Kind of experiment: static cell adhesion assay: U937 cells on immobilized 7D-VCAM-1 in the presence of the soluble polypeptide; blocked ligand: immobilized 7D-VCAM-1 (Example 13). Here is the method:
Prior to assaying, the U937 cells were re-suspended in labeling buffer (RPMI 1640 culture media without phenol red, 10% FBS; Invitrogen), then labeled with 0.5 μg/ml Calcein-AM at 37° C. for 30 minutes on a rotator. Subsequently, the cells were washed three times with labeling buffer then resuspended at 5×10^6 cells/ml in assay buffer (HEPES CaMgMn buffer: 50 mM HEPES, 150 mM NaCl, 1 mM CaCl₂, 1 mM MgCl₂, 1 mM MnCl2 pH 7.4).
The test compounds (i.e., the 2D-VCAM-1 variant polypeptides) were diluted in dilution buffer and added to VCAM-1-coated plates. […] Plates were spun down at 280×g for 5 minutes with assay buffer decanted by inversion before measuring fluorescence intensity (excitation=485 nm, emission=530 nm) with LJL Analyst HT 96.384 (Molecular Devices, Sunnyvale, Calif.).
FIG. 5 is a graph showing the cell adhesion index for anti-VLA4-antibody (used as a positive control for maximal inhibition of cell adherence), dilution buffer alone (“no treatment”, a control to show maximal cell adherence to the immobilized VCAM-1), 2D-VCAM-1 valiant Clone 46 (SEQ ID NO:12), Q38L-2D-VCAM-1 polypeptide (SEQ ID NO:10), and human 2D-VCAM-1 (SEQ ID NO:2). The cell adhesion index was calculated as (fluorescence intensity, VCAM-coated well)/(fluorescence intensity, non-CAM-1-coated well). […]

T1 sequence (P13612 34-1032, chain 1 of 2): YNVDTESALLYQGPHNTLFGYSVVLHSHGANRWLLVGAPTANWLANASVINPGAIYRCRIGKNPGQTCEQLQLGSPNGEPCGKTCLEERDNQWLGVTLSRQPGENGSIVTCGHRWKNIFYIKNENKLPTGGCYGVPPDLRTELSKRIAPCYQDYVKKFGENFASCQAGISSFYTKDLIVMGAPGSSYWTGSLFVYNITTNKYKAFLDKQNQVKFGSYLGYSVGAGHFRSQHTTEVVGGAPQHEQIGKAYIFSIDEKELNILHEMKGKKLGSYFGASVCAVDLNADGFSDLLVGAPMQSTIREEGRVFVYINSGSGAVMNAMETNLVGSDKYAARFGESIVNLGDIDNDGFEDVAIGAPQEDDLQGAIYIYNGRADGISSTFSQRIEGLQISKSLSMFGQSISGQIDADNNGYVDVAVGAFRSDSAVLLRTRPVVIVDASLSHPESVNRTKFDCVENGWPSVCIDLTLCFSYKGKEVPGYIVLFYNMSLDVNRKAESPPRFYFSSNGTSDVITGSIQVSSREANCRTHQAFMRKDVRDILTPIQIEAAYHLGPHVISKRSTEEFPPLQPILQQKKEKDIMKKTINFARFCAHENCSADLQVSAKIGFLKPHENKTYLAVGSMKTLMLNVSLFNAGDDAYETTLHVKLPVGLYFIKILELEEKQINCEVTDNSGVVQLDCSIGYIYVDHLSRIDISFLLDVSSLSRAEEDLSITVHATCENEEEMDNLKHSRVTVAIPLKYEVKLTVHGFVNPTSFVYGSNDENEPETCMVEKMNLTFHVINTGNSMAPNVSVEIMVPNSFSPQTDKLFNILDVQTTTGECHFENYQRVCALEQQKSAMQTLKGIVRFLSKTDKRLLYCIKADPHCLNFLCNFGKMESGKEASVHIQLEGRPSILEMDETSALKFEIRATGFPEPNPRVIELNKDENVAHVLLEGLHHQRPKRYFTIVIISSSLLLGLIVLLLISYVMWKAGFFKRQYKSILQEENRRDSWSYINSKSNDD
T1 sequence (P05556 21-798, chain 2 of 2): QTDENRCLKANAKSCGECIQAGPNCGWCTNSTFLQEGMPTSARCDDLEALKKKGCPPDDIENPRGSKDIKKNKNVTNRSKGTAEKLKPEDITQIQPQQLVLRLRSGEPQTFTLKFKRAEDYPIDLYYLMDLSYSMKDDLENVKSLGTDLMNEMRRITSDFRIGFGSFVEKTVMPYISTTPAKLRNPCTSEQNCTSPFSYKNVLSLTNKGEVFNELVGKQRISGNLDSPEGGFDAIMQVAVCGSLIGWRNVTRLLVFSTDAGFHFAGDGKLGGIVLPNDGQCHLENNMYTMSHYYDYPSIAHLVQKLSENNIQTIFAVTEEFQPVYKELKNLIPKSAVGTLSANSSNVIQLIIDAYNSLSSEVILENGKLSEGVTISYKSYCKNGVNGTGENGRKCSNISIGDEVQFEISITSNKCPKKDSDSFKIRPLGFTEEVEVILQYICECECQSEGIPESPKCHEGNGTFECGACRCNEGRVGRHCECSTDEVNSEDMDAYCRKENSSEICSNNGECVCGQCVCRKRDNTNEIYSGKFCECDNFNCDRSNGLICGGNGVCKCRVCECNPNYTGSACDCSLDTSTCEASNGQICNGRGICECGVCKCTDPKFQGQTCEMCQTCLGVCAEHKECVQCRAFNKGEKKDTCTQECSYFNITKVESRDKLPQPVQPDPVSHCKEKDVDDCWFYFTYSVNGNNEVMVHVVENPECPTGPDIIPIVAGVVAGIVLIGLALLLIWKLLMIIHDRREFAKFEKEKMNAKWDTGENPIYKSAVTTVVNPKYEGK

B1: Q38L-2D-VCAM-1 (ligand)
chain: FKIETTPESRYLAQIGDSVSLTCSTTGCESPFFSWRTLIDSPLNGKVTNEGTTSTLTMNPVSFGNEHSYLCTATCESRKLEKGIQVEIYSFPKDPEIHLSGPLEAGKPITVKCSVADVYPFDRLEIDLLKGDHLMKSQEFLEDADRKSLETKSLEVTFTPVIEDIGKVLVCRAKLHIDEMDSVPTVRQAVKELQVYISP
notes: also called Q38L 2D-VCAM-1 polypeptide; not shown: His tag
Take B1: the binding result was “binds”.
